{"source": "patent US20240174992A1", "about": "“SPLIT MODIFIED DEHALOGENASE VARIANTS” (Promega Corporation, priority 2022, published 2024)", "binders": {"B1": {"name": "spHT 133 N-terminal fragment [1-133] fused to FRB or FKBP (protein, part only; not given: FRB or FKBP partner, orientation, part only)", "chain, part": "MAEIGTGFPFDPHYVEVLGERMHYVDVGPRDGTPVLFLHGNPTSSYVWRNIIPHVAPTHRCIAPDLIGMGKSDKPDLGYFFDDHVRFMDAFIEALGLEEVVLVIHDWGSALGFHWAKRNPERVKGIAFMEFIR"}, "B2": {"name": "spHT 80 N-terminal fragment [1-80] fused to FRB or FKBP (protein, part only; not given: FRB or FKBP partner, orientation, part only)", "chain, part": "MAEIGTGFPFDPHYVEVLGERMHYVDVGPRDGTPVLFLHGNPTSSYVWRNIIPHVAPTHRCIAPDLIGMGKSDKPDLGYF"}, "B3": {"name": "spHT 145 N-terminal fragment [1-145] fused to FRB or FKBP (protein, part only; not given: FRB or FKBP partner, orientation, part only)", "chain, part": "MAEIGTGFPFDPHYVEVLGERMHYVDVGPRDGTPVLFLHGNPTSSYVWRNIIPHVAPTHRCIAPDLIGMGKSDKPDLGYFFDDHVRFMDAFIEALGLEEVVLVIHDWGSALGFHWAKRNPERVKGIAFMEFIRPIPTWDEWPEFA"}, "B4": {"name": "spHT 195 N-terminal fragment [1-195] fused to FRB or FKBP (protein, part only; not given: FRB or FKBP partner, orientation, part only)", "chain, part": "MAEIGTGFPFDPHYVEVLGERMHYVDVGPRDGTPVLFLHGNPTSSYVWRNIIPHVAPTHRCIAPDLIGMGKSDKPDLGYFFDDHVRFMDAFIEALGLEEVVLVIHDWGSALGFHWAKRNPERVKGIAFMEFIRPIPTWDEWPEFARETFQAFRTTDVGRKLIIDQNVFIEGTLPMGVVRPLTEVEMDHYREPFLN"}, "B5": {"name": "spHT 180 N-terminal fragment [1-180] fused to FRB or FKBP (protein, part only; not given: FRB or FKBP partner, orientation, part only)", "chain, part": "MAEIGTGFPFDPHYVEVLGERMHYVDVGPRDGTPVLFLHGNPTSSYVWRNIIPHVAPTHRCIAPDLIGMGKSDKPDLGYFFDDHVRFMDAFIEALGLEEVVLVIHDWGSALGFHWAKRNPERVKGIAFMEFIRPIPTWDEWPEFARETFQAFRTTDVGRKLIIDQNVFIEGTLPMGVVRP"}, "B6": {"name": "spHT 157 N-terminal fragment [1-157] fused to FRB or FKBP (protein, part only; not given: FRB or FKBP partner, orientation, part only)", "chain, part": "MAEIGTGFPFDPHYVEVLGERMHYVDVGPRDGTPVLFLHGNPTSSYVWRNIIPHVAPTHRCIAPDLIGMGKSDKPDLGYFFDDHVRFMDAFIEALGLEEVVLVIHDWGSALGFHWAKRNPERVKGIAFMEFIRPIPTWDEWPEFARETFQAFRTTDV"}}, "assay_in_all_cases": "cell-based or functional assay", "key": {"[1]": {"target": "spHT 19 C-terminal fragment [20-297] fused to FRB or FKBP"}, "[2]": {"target": "spHT 133 C-terminal fragment [134-297] fused to FRB or FKBP"}, "[3]": {"target": "spHT 80 C-terminal fragment [81-297] fused to FRB or FKBP"}, "[4]": {"target": "spHT 145 C-terminal fragment [146-297] fused to FRB or FKBP"}, "[5]": {"target": "spHT 195 C-terminal fragment [196-297] fused to FRB or FKBP"}, "[6]": {"target": "spHT 180 C-terminal fragment [181-297] fused to FRB or FKBP"}, "[7]": {"target": "spHT 157 C-terminal fragment [158-297] fused to FRB or FKBP"}}, "data": [{"binder": "MAEIGTGFPFDPHYVEVLG (peptide, part only; not given: FRB or FKBP partner, orientation, part only)", "note": "[spHT 19 N-terminal fragment [1-19] fused to FRB or FKBP]", "values": [{"measurement": "increase in JF646 fluorogenic signal at a N:C fragment ratio of 10", "setting": "[1]", "result": 25, "unit": "%"}, {"measurement": "increase in TMR labeling efficiency on raising the N:C fragment ratio from 1.25 to 10", "setting": "[1]", "result": "> 100", "unit": "%"}]}, {"binder": "B1", "values": [{"measurement": "fold increase in JF646 fluorescence with 50 nM rapamycin (E. coli lysates)", "setting": "[2]", "result": "> 2", "unit": "fold"}]}, {"binder": "B2", "values": [{"measurement": "fold increase in JF646 fluorescence with 50 nM rapamycin (E. coli lysates)", "setting": "[3]", "result": "> 2", "unit": "fold"}]}, {"binder": "B3", "values": [{"measurement": "fold increase in JF646 fluorescence with 50 nM rapamycin (E. coli lysates)", "setting": "[4]", "result": "> 2", "unit": "fold"}]}, {"binder": "B4", "values": [{"measurement": "fold increase in JF646 fluorescence with 50 nM rapamycin (E. coli lysates)", "setting": "[5]", "result": "> 2", "unit": "fold"}]}, {"binder": "B5", "values": [{"measurement": "fold increase in JF646 fluorescence with 50 nM rapamycin (E. coli lysates)", "setting": "[6]", "result": "> 2", "unit": "fold"}]}, {"binder": "B6", "values": [{"measurement": "fold increase in JF646 fluorescence with 50 nM rapamycin (E. coli lysates)", "setting": "[7]", "result": "> 2", "unit": "fold"}]}]}
